The source of these data is patent US20210395394A1.

B1: WT 1-6 (antibody, mouse IgG2b, kappa, V domains shown)
VH: QVQLQQPGAELVRPGASVKLSCKASGTSFTNYFMNWVKQRPGQGLEWIGMINPSDSETRLNQKFKDKATLTVDKSSSTAYMQLSSLTAEDSAVYYCARSGDFYTYYWDYWGQGTTLTVSS
VL: DIQLTQSPASLSASVGETVTITCRGSGNIHNYIAWYQQKQGKSPQLLVYNAKTVADGVPSRFSGSGSGTQYSLKINSLQPEDFGSYYCQSFWSSYTFGGGTKLEIKR
B2: Mutation 1-4 (antibody, mouse IgG2b, kappa, V domains shown)
VH: QVQLQQPGAELVRPGASVKLSCKASGYSFTNYWMNWVKQRPGQGLEWIGMIHPSDSETRLNQKFKDKATLTVDKSSSTAYMQLSSLTAEDSAVYYCAKSGEFYTYYFDYWGQGTTLTVSS
VL: DIQLTQSPASLSASVGETVTITCRGSGNIHNYLAWYQQKQGKSPQLLVYNAKTVADGVPSRFSGSGSGTQYSLKINSLQPEDFGSYYCQTFWSTYTFGGGTKLEIKR
B3: Mutation 1-10 (antibody, mouse IgG2b, kappa, V domains shown)
VH: QVQLQQPGAELVRPGASVKLSCKASGTSFTNYWMNWVKQRPGQGLEWIGMIHPSESETRLNQKFKDKATLTVDKSSSTAYMQLSSLTAEDSAVYYCARSGEFYTYYFDYWGQGTTLTVSS
VL: DIQLTQSPASLSASVGETVTITCRGTGNLHNYLAWYQQKQGKSPQLLVYNARTVADGVPSRFSGSGSGTQYSLKINSLQPEDFGSYYCQYFWSTYTFGGGTKLEIKR
B4: Mutation 1-13 (antibody, mouse IgG2b, kappa, V domains shown)
VH: QVQLQQPGAELVRPGASVKLSCKASGTSFTNYWMNWVKQRPGQGLEWIGMIHPSDSETRLNQKFKDKATLTVDKSSSTAYMQLSSLTAEDSAVYYCAKSGDFYTYYFDYWGQGTTLTVSS
VL: DIQLTQSPASLSASVGETVTITCRGTGNLHNYLAWYQQKQGKSPQLLVYNAKTLADGVPSRFSGSGSGTQYSLKINSLQPEDFGSYYCQTFWSTYTFGGGTKLEIKR
B5: Mutation 1-11 (antibody, mouse IgG2b, kappa, V domains shown)
VH: QVQLQQPGAELVRPGASVKLSCKASGYSFTNYWMNWVKQRPGQGLEWIGMIHPSESETRVNQKFKDKATLTVDKSSSTAYMQLSSLTAEDSAVYYCARSGEFYTTYFDYWGQGTTLTVSS
VL: DIQLTQSPASLSASVGETVTITCRGSGNLHNYLAWYQQKQGKSPQLLVYNARTIADGVPSRFSGSGSGTQYSLKINSLQPEDFGSYYCQTFWSTYTFGGGTKLEIKR
B6: WT 1-8 (antibody, mouse IgG2b, kappa, V domains shown)
VH: QVQLQQPGAELVRPGASVKLSCKASGTSFTNYFMNWVKQRPGQGLEWIGMINPSDSETRVNQKFKDKATLTVDKSSSTAYMQLSSLTAEDSAVYYCAKSGEFYTSYWDYWGQGTTLTVSS
VL: DIQLTQSPASLSASVGETVTITCRGSGNVHNYIAWYQQKQGKSPQLLVYNAKTIADGVPSRFSGSGSGTQYSLKINSLQPEDFGSYYCQSFWSSYTFGGGTKLEIKR
B7: Mutation 1-6 (antibody, mouse IgG2b, kappa, V domains shown)
VH: QVQLQQPGAELVRPGASVKLSCKASGTSFTNYWMNWVKQRPGQGLEWIGMIHPSDSETRINQKFKDKATLTVDKSSSTAYMQLSSLTAEDSAVYYCARSGDFYTSYFDYWGQGTTLTVSS
VL: DIQLTQSPASLSASVGETVTITCRGTGNIHNYLAWYQQKQGKSPQLLVYNAKTLADGVPSRFSGSGSGTQYSLKINSLQPEDFGSYYCQTFWSTYTFGGGTKLEIKR
B8: WT 1-9 (antibody, mouse IgG2b, kappa, V domains shown)
VH: QVQLQQPGAELVRPGASVKLSCKASGSSFTNYFMNWVKQRPGQGLEWIGMINPSESETRINQKFKDKATLTVDKSSSTAYMQLSSLTAEDSAVYYCAKSGEFYTYYWDYWGQGTTLTVSS
VL: DIQLTQSPASLSASVGETVTITCRGTGNVHNYIAWYQQKQGKSPQLLVYNARTLADGVPSRFSGSGSGTQYSLKINSLQPEDFGSYYCQTFWSSYTFGGGTKLEIKR
B9: Mutation 1-15 (antibody, mouse IgG2b, kappa, V domains shown)
VH: QVQLQQPGAELVRPGASVKLSCKASGSSFTNYWMNWVKQRPGQGLEWIGMIHPSESETRINQKFKDKATLTVDKSSSTAYMQLSSLTAEDSAVYYCAKSGEFYTSYFDYWGQGTTLTVSS
VL: DIQLTQSPASLSASVGETVTITCRGTGNVHNYLAWYQQKQGKSPQLLVYNARTVADGVPSRFSGSGSGTQYSLKINSLQPEDFGSYYCQTFWSTYTFGGGTKLEIKR
B10: Mutation 1-17 (antibody, mouse IgG2b, kappa, V domains shown)
VH: QVQLQQPGAELVRPGASVKLSCKASGTSFTNYWMNWVKQRPGQGLEWIGMIHPSESETRVNQKFKDKATLTVDKSSSTAYMQLSSLTAEDSAVYYCAKSGEFYTTYFDYWGQGTTLTVSS
VL: DIQLTQSPASLSASVGETVTITCRGTGNIHNYLAWYQQKQGKSPQLLVYNARTVADGVPSRFSGSGSGTQYSLKINSLQPEDFGSYYCQTFWSTYTFGGGTKLEIKR
B11: Mutation 1-9 (antibody, mouse IgG2b, kappa, V domains shown)
VH: QVQLQQPGAELVRPGASVKLSCKASGSSFTNYWMNWVKQRPGQGLEWIGMIHPSESETRINQKFKDKATLTVDKSSSTAYMQLSSLTAEDSAVYYCARSGEFYTSYFDYWGQGTTLTVSS
VL: DIQLTQSPASLSASVGETVTITCRGSGNVHNYLAWYQQKQGKSPQLLVYNARTLADGVPSRFSGSGSGTQYSLKINSLQPEDFGSYYCQSFWSTYTFGGGTKLEIKR
B12: Mutation 1-8 (antibody, mouse IgG2b, kappa, V domains shown)
VH: QVQLQQPGAELVRPGASVKLSCKASGYSFTNYWMNWVKQRPGQGLEWIGMIHPSDSETRVNQKFKDKATLTVDKSSSTAYMQLSSLTAEDSAVYYCARSGDFYTTYFDYWGQGTTLTVSS
VL: DIQLTQSPASLSASVGETVTITCRGTGNVHNYLAWYQQKQGKSPQLLVYNAKTIADGVPSRFSGSGSGTQYSLKINSLQPEDFGSYYCQYFWSTYTFGGGTKLEIKR
B13: Mutation 1-5 (antibody, mouse IgG2b, kappa, V domains shown)
VH: QVQLQQPGAELVRPGASVKLSCKASGSSFTNYWMNWVKQRPGQGLEWIGMIHPSDSETRVNQKFKDKATLTVDKSSSTAYMQLSSLTAEDSAVYYCAKSGEFYTTYFDYWGQGTTLTVSS
VL: DIQLTQSPASLSASVGETVTITCRGTGNIHNYLAWYQQKQGKSPQLLVYNAKTLADGVPSRFSGSGSGTQYSLKINSLQPEDFGSYYCQSFWSTYTFGGGTKLEIKR
B14: WT 1-7 (antibody, mouse IgG2b, kappa, V domains shown)
VH: QVQLQQPGAELVRPGASVKLSCKASGSSFTNYFMNWVKQRPGQGLEWIGMINPSDSETRVNQKFKDKATLTVDKSSSTAYMQLSSLTAEDSAVYYCARSGEFYTSYWDYWGQGTTLTVSS
VL: DIQLTQSPASLSASVGETVTITCRGTGNVHNYIAWYQQKQGKSPQLLVYNAKTLADGVPSRFSGSGSGTQYSLKINSLQPEDFGSYYCQYFWSSYTFGGGTKLEIKR
B15: Mutation 1-16 (antibody, mouse IgG2b, kappa, V domains shown)
VH: QVQLQQPGAELVRPGASVKLSCKASGYSFTNYWMNWVKQRPGQGLEWIGMIHPSESETRLNQKFKDKATLTVDKSSSTAYMQLSSLTAEDSAVYYCAKSGEFYTYYFDYWGQGTTLTVSS
VL: DIQLTQSPASLSASVGETVTITCRGSGNIHNYLAWYQQKQGKSPQLLVYNARTLADGVPSRFSGSGSGTQYSLKINSLQPEDFGSYYCQSFWSTYTFGGGTKLEIKR
B16: Mutation 1-1 (antibody, mouse IgG2b, kappa, V domains shown)
VH: QVQLQQPGAELVRPGASVKLSCKASGYSFTNYWMNWVKQRPGQGLEWIGMIHPSESETRLNQKFKDKATLTVDKSSSTAYMQLSSLTAEDSAVYYCAKSGDFYTYYFDYWGQGTTLTVSS
VL: DIQLTQSPASLSASVGETVTITCRGTGNLHNYLAWYQQKQGKSPQLLVYNARTVADGVPSRFSGSGSGTQYSLKINSLQPEDFGSYYCQYFWSTYTFGGGTKLEIKR
B17: Mutation 1-12 (antibody, mouse IgG2b, kappa, V domains shown)
VH: QVQLQQPGAELVRPGASVKLSCKASGYSFTNYWMNWVKQRPGQGLEWIGMIHPSDSETRINQKFKDKATLTVDKSSSTAYMQLSSLTAEDSAVYYCAKSGDFYTSYFDYWGQGTTLTVSS
VL: DIQLTQSPASLSASVGETVTITCRGSGNLHNYLAWYQQKQGKSPQLLVYNAKTVADGVPSRFSGSGSGTQYSLKINSLQPEDFGSYYCQYFWSTYTFGGGTKLEIKR
B18: Mutation 1-2 (antibody, mouse IgG2b, kappa, V domains shown)
VH: QVQLQQPGAELVRPGASVKLSCKASGTSFTNYWMNWVKQRPGQGLEWIGMIHPSESETRVNQKFKDKATLTVDKSSSTAYMQLSSLTAEDSAVYYCAKSGDFYTTYFDYWGQGTTLTVSS
VL: DIQLTQSPASLSASVGETVTITCRGSGNVHNYLAWYQQKQGKSPQLLVYNARTLADGVPSRFSGSGSGTQYSLKINSLQPEDFGSYYCQTFWSTYTFGGGTKLEIKR
B19: Mutation 1-3 (antibody, mouse IgG2b, kappa, V domains shown)
VH: QVQLQQPGAELVRPGASVKLSCKASGTSFTNYWMNWVKQRPGQGLEWIGMIHPSDSETRINQKFKDKATLTVDKSSSTAYMQLSSLTAEDSAVYYCAKSGEFYTSYFDYWGQGTTLTVSS
VL: DIQLTQSPASLSASVGETVTITCRGTGNVHNYLAWYQQKQGKSPQLLVYNAKTIADGVPSRFSGSGSGTQYSLKINSLQPEDFGSYYCQYFWSTYTFGGGTKLEIKR
B20: Mutation 1-14 (antibody, mouse IgG2b, kappa, V domains shown)
VH: QVQLQQPGAELVRPGASVKLSCKASGSSFTNYWMNWVKQRPGQGLEWIGMIHPSDSETRVNQKFKDKATLTVDKSSSTAYMQLSSLTAEDSAVYYCAKSGDFYTTYFDYWGQGTTLTVSS
VL: DIQLTQSPASLSASVGETVTITCRGSGNVHNYLAWYQQKQGKSPQLLVYNAKTIADGVPSRFSGSGSGTQYSLKINSLQPEDFGSYYCQSFWSTYTFGGGTKLEIKR
B21: Mutation 1-7 (antibody, mouse IgG2b, kappa, V domains shown)
VH: QVQLQQPGAELVRPGASVKLSCKASGSSFTNYWMNWVKQRPGQGLEWIGMIHPSDSETRLNQKFKDKATLTVDKSSSTAYMQLSSLTAEDSAVYYCARSGDFYTYYFDYWGQGTTLTVSS
VL: DIQLTQSPASLSASVGETVTITCRGSGNIHNYLAWYQQKQGKSPQLLVYNAKTVADGVPSRFSGSGSGTQYSLKINSLQPEDFGSYYCQSFWSTYTFGGGTKLEIKR

This assay addresses Pan-species-specific antigen Plasmodium Lactate DeHydrogenase (Pan-PLDH) protein. Briefly: indirect ELISA at four coating concentrations, KD calculated from half-maximal OD.
In the case of B1, the Kd was 1.56 nM.

For the molecule B2, the Kd was 0.596 nM.

Regarding B3, the Kd is 0.525 nM.

For B4, the Kd is 0.531 nM.

As to B5, the Kd was 0.465 nM.

As to B6, the Kd was 1.36 nM.

Regarding B7, the Kd was 0.664 nM.

For the molecule B8, the Kd was 0.621 nM.

Consider B9, for which the Kd was 0.47 nM.

Consider B10, for which the Kd is 0.37 nM.

Regarding B11, the Kd was 0.616 nM.

Consider B12, for which the Kd is 0.481 nM.

With B13, the Kd is 0.532 nM.

Take B14: the Kd was 0.757 nM.

Consider B15, for which the Kd was 0.411 nM.

Consider B16, for which the dissociation constant Kd is 0.521 nM.

Take B17: the Kd is 0.118 nM.

Take B18: the dissociation constant Kd is 0.338 nM.

As to B19, the Kd was 0.098 nM.

B20: the Kd was 0.488 nM.

Regarding B21, the Kd is 0.208 nM.

Usually Kd stands for the concentration at which binding is half-saturated.
